The values below come from publication PMC8413284.

Assay [1] addresses recombinant human FcγRIIa (human) (UniProt P12318). The assay is described as follows: SPR; R131 allotype.
Assay [2] concerns the target recombinant human FcγRI (human) (UniProt P12314). The assay is described as follows: SPR. Background: In SPR one partner is held on a chip, and binding of the other changes the refractive index at the surface.
The target of assay [3] is recombinant human FcγRIIIa (human) (UniProt P08637). The assay is described as follows: SPR; F158 allotype.
Assay [4] addresses rituximab hIgG1 μtp pre-formed hexamer (human). Nature of the assay: SEC; SE-UHPLC after Protein A purification, against molecular weight controls; ACQUITY BEH200, 200 mM phosphate pH 7.0, 1 µg injected.
Assay [5] shares this target. The assay is described as follows: negative stain electron microscopy; antibody 10 μg/ml on grids, 2% uranyl acetate, x80,000.
The target is the same in assay [6]. Nature of the assay: SEC-MALS; 50 μg on Superdex 200 increase 10/300, PBS pH 7.4, 0.5 ml/minute; absolute molecular weight. (In general: Size exclusion chromatography separates by hydrodynamic size, large species first.)

UniProt P12318, sequence (P12318 34-217): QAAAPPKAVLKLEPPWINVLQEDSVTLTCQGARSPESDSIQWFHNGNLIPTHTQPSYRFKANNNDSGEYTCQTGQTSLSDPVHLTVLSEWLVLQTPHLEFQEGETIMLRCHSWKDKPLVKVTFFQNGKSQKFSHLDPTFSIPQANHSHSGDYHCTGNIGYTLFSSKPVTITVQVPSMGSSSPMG
UniProt P08637, sequence (P08637 17-208): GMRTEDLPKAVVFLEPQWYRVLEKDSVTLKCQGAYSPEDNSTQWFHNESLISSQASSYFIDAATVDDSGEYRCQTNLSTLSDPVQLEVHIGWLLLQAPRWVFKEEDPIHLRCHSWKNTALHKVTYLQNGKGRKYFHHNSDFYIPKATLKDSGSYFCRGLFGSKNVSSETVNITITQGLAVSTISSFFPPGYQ
UniProt P12314, sequence (P12314 16-292): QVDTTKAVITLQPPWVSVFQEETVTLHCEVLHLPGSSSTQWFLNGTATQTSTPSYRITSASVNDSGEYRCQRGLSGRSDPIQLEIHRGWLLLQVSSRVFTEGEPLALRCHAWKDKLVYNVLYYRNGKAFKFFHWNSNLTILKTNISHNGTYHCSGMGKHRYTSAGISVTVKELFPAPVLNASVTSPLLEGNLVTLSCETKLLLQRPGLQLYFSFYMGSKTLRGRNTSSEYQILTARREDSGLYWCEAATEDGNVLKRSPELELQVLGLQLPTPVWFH

Broadly, the Kd is the concentration at which binding is half-saturated. As for rituximab hIgG1 wild-type, the Kd in assay [1] came out at 0.935 µM; in assay [2], 0.00436 µM; in assay [3], 0.719 µM.

By stoichiometry N is commonly meant a count of units in the complex or per binding partner. Consider “rituximab hIgG1 μtp pre-formed hexamer (antibody)”, for which the stoichiometry N in assay [4], in assay [5] and in assay [6] was 6 throughout.

On to rituximab hIgG1 μtp pre-formed hexamer, for which the results for the Kd in assay [1], in assay [2] and in assay [3] were 0.964 µM, 0.00753 µM and 0.41 µM, respectively.
